Biological target: MlucV reporter (mTFP1 - mutated firefly luciferase - Venus), urea-pre-unfolded / misfolding (firefly)

Sequence of Ydj1 (yeast class A J-domain protein) (P25491 whole entry): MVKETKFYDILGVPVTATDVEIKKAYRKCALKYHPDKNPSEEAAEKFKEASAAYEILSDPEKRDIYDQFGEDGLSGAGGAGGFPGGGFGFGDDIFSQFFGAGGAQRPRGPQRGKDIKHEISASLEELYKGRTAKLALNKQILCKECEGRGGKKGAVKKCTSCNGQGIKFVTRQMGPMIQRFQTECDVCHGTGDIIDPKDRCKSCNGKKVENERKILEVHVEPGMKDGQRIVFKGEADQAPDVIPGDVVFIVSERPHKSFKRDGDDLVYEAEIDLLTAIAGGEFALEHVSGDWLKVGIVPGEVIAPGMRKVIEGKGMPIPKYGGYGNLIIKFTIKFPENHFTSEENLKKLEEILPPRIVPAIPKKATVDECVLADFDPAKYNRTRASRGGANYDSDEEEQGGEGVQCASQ
Sequence of Ssa1 (yeast cytosolic Hsp70) (P10591 whole entry): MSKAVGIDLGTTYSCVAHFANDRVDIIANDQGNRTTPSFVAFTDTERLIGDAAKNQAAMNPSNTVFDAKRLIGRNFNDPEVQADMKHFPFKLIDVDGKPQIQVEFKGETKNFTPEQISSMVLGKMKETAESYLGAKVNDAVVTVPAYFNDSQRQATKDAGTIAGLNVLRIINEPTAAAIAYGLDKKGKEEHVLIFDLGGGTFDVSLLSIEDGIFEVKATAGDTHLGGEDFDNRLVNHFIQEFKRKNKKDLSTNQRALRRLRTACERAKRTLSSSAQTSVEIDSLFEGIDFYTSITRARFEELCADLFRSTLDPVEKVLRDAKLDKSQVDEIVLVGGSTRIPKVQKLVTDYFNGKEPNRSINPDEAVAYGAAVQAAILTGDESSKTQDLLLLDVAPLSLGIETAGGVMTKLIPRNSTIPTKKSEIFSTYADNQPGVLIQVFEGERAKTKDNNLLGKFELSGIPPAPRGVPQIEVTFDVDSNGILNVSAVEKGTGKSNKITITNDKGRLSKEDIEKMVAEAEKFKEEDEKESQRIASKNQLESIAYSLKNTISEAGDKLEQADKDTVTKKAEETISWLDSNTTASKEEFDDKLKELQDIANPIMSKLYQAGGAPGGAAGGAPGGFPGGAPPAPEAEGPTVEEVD

| prevention of aggregation: normalised FRET of urea-pre-unfolded MlucV diluted into increasing Ssa1 (150% without chaperone) (% of the FRET of native MlucV) | prevention of aggregation: normalised FRET of urea-pre-unfolded MlucV diluted into increasing Ydj1 (150% without Ydj1; native MlucV = 100%) (% of the FRET of native MlucV) | Substance |
| --- | --- | --- |
| 145 | – | Ssa1 (yeast cytosolic Hsp70) (from UniProt P10591 1-642) (natural protein) |
| – | 105 | Ydj1 (yeast class A J-domain protein) (from UniProt P25491 1-409) (natural protein) |
